Results published in patent US9096835B2, “DNA polymerase” (Medical Research Council, priority 2003, dated 2015).
“And” between values parts separate entries of the source, which are not always exact repeats. Identical values can stand only once.

Assays:
[1] = test system: primer-template duplex with matched or mismatched 3′ terminus; assay: Steady-state extension kinetics, gel-based assay; format: biochemical; conditions: incorporated base is dCTP
Experimental: (§1) Kinetic parameters were determined using a gel-based assay essentially as described (16). Primers 15, 16, 17 (3′ base=G, C, A respectively) were ^32P-labeled and annealed to one of template strands 18, 19, 20 (template base=C, G, A respectively) or 21 (template base C different context). Duplex substrates were used at 50 nM final concentration in 1× Taq buffer with various concentrations of enzyme and dNTP. Reactions were carried out at 60° C. for times whereby <20% of primer-template was utilized at the highest concentration of dNTP.
(§2) Extension and incorporation kinetics of M1 and M4 for a selection of mismatches were measured using a gel-based steady-state kinetic assay (Goodman) (Tables 1 & 2). M1 and M4 respectively extend a C•C mispair 390 and 75-fold more efficiently than wtTaq. […] The gain in extension efficiency derives predominantly from increased relative Vmax values for the mutant polymerases, while Km for nucleotide substrates remains largely unchanged. For most DNA polymerases the relative efficiency of extending a given mispair (f0ext) is similar to the relative efficiency of forming it (finc) (Goodman 1993, Goodman 1990, Washington 2001). Indeed, M1 and M4 respectively incorporate dCTP opposite template base C 206- and 29-fold more efficiently than wtTaq (Table 2).

[2] = test system: primer-template duplex, correct or incorrect incoming dNTP; assay: Steady-state single nucleotide incorporation kinetics, gel-based assay; format: biochemical
Experimental: as §1, §2

[3] = PCR with all four dNTPs replaced by αS dNTPs; format: biochemical; conditions: 50 cycle PCR, 50 μM αS dNTPs
Experimental: A PCR assay was used to screen and rank clones. Briefly, clones were normalized for activity in PCR with matched primers 3, 4 and activity with mismatched primers 1 and 2 (1 μM each) determined at minimal cycle number (15-25 cycles). Extension capability for different mismatches was determined by the same assay using mismatch primers 2 (C•C mismatch), 5 (A•A mismatch), 6 (G•G mismatch), 7 (G•A mismatch) with matched primer 3 or primer 1 (A•G mismatch) with matched primer 4. Incorporation of unnatural substrates in 50 cycle PCR was carried out using standard conditions and 50 μM […] dNTPs (Promega) or 50 μM FITC-12-dATP (Perkin-Elmer), Rhodamine-5-dUTP (Perkin-Elmer) or Biotin-16-dUTP (Roche) with equivalent amounts of the other 3 dNTPs (all 50 μM). Long PCR was carried out using a two-step cycling protocol as described (22) 94° C. for 2 minutes, followed by 20 cycles of (94° C. 15 sec, 68° C. 30 min) using 5 ng of phage λ DNA (New England Biolabs) template and either primers 9, 10, 11 with primer 12 or primer 13 with primers 10, 14.

[4] = test system: primer-template DNA substrates; assay: Processivity primer extension assay with and without trap DNA; format: biochemical
Experimental: Processivity was measured using a primer extension assay the presence and absence of trap DNA. Termination probabilities were calculated according to the method of Kokoska et al.
Oligonucleotide primer 32 (5′-GCGGTGTAGAGACGAGTGCGGAG-3′) (SEQ ID NO: 117) was ^32P-labelled and annealed to the template 33 (5′-CTCTCACAAGCAGCCAGGCAAGCTCCGCACTCGTCTCTACACCGCTCCGC-3′ (SEQ ID NO: 118)) (at a primer/template ratio of molar 1/1.5). wtTaq (0.0025 nM; 0.025 nM; 0.25 nM), M1(0.05 nM; 0.5 nM; 5 nM), and M4 (0.05 nM; 0.5 nM; 5 nM) were preincubated with the primer-template DNA substrates (10 nM) in 10 mM Tris-HCl at pH 9.0, 5 mM MgCl2, 50 mM KCl, 0.1% Triton X 100 at 25° C. for 15 min. Reactions were initiated by addition of 100 μM dNTPs with or without trap DNA (1000-fold excess of unlabeled primer-templates). Reactions were performed at 60° C. for 2 min. […] Thus, in the presence of trap DNA, all DNA synthesis resulted from a single DNA binding event. Gel band intensities were calculated using a Phosphoimager and ImageQuant (both Molecular Dynamics) software. Percentage of polymerase molecules, which extended primers to the end of the template was calculated using the formula: In×100%/(I1+I2+ . . . +In), where In is the intensity of the band at position 22 or 23; I1, I2 . . . is the intensity of the band at position 1, 2 . . . . Termination probabilities (τ) were calculated according to the method of Kokoska et al^1, whereby t at a particular template position was calculated as the intensity of the band at this position divided by the sum of the intensity of this band and the band intensities of all longer products.

[5] = target: matched and mismatched primer-template duplex; assay: Template affinity equilibrium binding assay; conditions: not shown
Experimental: An equilibrium binding assay (12) was used to determine relative affinity of polymerases for the mismatched primer-templates used in the kinetics assays. Polymerases were preincubated at 60° C. in 1× Taq buffer with 50 nM ^32P-labeled matched primer-template and 50 nM unlabeled mismatched competitor primer-templates. Reactions were initiated by simultaneous addition of dCTP (200 μM) and trap DNA (XbaI/SalI-restricted sheared salmon sperm DNA, 4.5 mg/ml).

[6] = 3′-terminal base pair C · G (template base: 3′ primer base), matched

B1: M4: Taq mutant D58G, R74P, A109T, L245R, R343G, G370D, E520G, N583S, E694K, A743P; SEQ ID NO 2 (protein)
chain: MRGMLPLYEPKGRVLLVDGHHLAYRTFHALKGLTTSRGEPVQAVYGFAKSLLKALKEGGDAVIVVFDAKAPSFPHEAYGGYKAGRAPTPEDFPRQLALIKELVDLLGLTRLEVPGYEADDVLASLAKKAEKEGYEVRILTADKDLYQLLSDRIHVLHPEGYLITPAWLWEKYGLRPDQWADYRALTGDESDNLPGVKGIGEKTARKLLEEWGSLEALLKNLDRLKPAIREKILAHMDDLKLSWDRAKVRTDLPLEVDFAKRREPDRERLRAFLERLEFGSLLHEFGLLESPKALEEAPWPPPEGAFVGFVLSRKEPMWADLLALAAARGGRVHRAPEPYKALGDLKEARGLLAKDLSVLALREGLGLPPDDDPMLLAYLLDPSNTTPEGVARRYGGEWTEEAGERAALSERLFANLWGRLEGEERLLWLYREVERPLSAVLAHMEATGVRLDVAYLRALSLEVAEEIARLEAEVFRLAGHPFNLNSRDQLERVLFDELGLPAIGKTEKTGKRSTSAAVLGALREAHPIVEKILQYRELTKLKSTYIDPLPDLIHPRTGRLHTRFNQTATATGRLSSSDPNLQSIPVRTPLGQRIRRAFIAEEGWLLVALDYSQIELRVLAHLSGDENLIRVFQEGRDIHTETASWMFGVPREAVDPLMRRAAKTINFGVLYGMSAHRLSQELAIPYEEAQAFIKRYFQSFPKVRAWIEKTLEEGRRRGYVETLFGRRRYVPDLEARVKSVREPAERMAFNMPVQGTAADLMKLAMVKLFPRLEEMGARMLLQVHDELVLEAPKERAEAVARLAKEVMEGVYPLAVPLEVEVGIGEDWLSAKE
modifications: Mutant Thermus aquaticus DNA polymerase
[1]; 3′-terminal base pair A · A (template base: 3′ primer base)
  Vmax: 8.5 % Min^−1
[1]; 3′-terminal base pair A · A
  Km: 32.9 µM
  Ratio of fext, fext (mutant polymerase)/fext (wtTaq): 5.7
  fext, f (mismatched 3′terminus)/f (matched terminus): 3.8 × 10^−6
[1]; 3′-terminal base pair A · G (template base: 3′ primer base)
  Vmax: 50.0 % Min^−1
[1]; 3′-terminal base pair A · G
  Km: 259 µM
  Ratio of fext, fext (mutant polymerase)/fext (wtTaq): 7.0
  fext, f (mismatched 3′terminus)/f (matched terminus): 1.5 × 10^−6
[1]; 3′-terminal base pair C · C (template base: 3′ primer base)
  Vmax: 11.1 % Min^−1
[1]; 3′-terminal base pair C · C
  Km: 36.6 µM
  Ratio of fext, fext (mutant polymerase)/fext (wtTaq): 75 and 75.3
  fext, f (mismatched 3′terminus)/f (matched terminus): 4.5 × 10^−6
[1]; [6]
  Km: 0.012 µM
  Vmax: 817.0 % Min^−1
[1]; 3′-terminal base pair G · A (template base: 3′ primer base)
  Vmax: 7.5 % Min^−1
[1]; 3′-terminal base pair G · A
  Km: 29 µM
  Ratio of fext, fext (mutant polymerase)/fext (wtTaq): 7.0
  fext, f (mismatched 3′terminus)/f (matched terminus): 3.8 × 10^−6
[1]; 3′-terminal base pair G · G (template base: 3′ primer base)
  Vmax: 70.6 % Min^−1
[1]; 3′-terminal base pair G · G
  Km: 107 µM
  Ratio of fext, fext (mutant polymerase)/fext (wtTaq): 7.6
  fext, f (mismatched 3′terminus)/f (matched terminus): 9.7 × 10^−6
[2]; base pair C: dCTP
  Km: 1390 µM
  Ratio of finc, finc (mutant polymerase)/finc (wtTaq): 29 and 29.22
  finc, f (incorrect dNTP)/f (correct dNTP): 1.13 × 10^−6
[2]; base pair C: dCTP (template base: incoming nucleotide)
  Vmax: 52.63 % Min^−1
[2]; base pair C: dGTP (template base: incoming nucleotide), correct dNTP
  Vmax: 335.42 % Min^−1
[2]; base pair C: dGTP, correct dNTP
  Km: 0.01 µM
[2]; base pair G: dATP
  Km: 158 µM
  Ratio of finc, finc (mutant polymerase)/finc (wtTaq): 2.18
  finc, f (incorrect dNTP)/f (correct dNTP): 1.80 × 10^−4
[2]; base pair G: dATP (template base: incoming nucleotide)
  Vmax: 1935.48 % Min^−1
[2]; base pair G: dCTP (template base: incoming nucleotide), correct dNTP
  Vmax: 817 % Min^−1
[2]; base pair G: dCTP, correct dNTP
  Km: 0.012 µM
[2]; base pair G: dGTP
  Km: 82.3 µM
  Ratio of finc, finc (mutant polymerase)/finc (wtTaq): 68.82
  finc, f (incorrect dNTP)/f (correct dNTP): 1.17 × 10^−4
[2]; base pair G: dGTP (template base: incoming nucleotide)
  Vmax: 656.46 % Min^−1
[2]; base pair G: dTTP
  Km: 5.1 µM
  Ratio of finc, finc (mutant polymerase)/finc (wtTaq): 1.1
  finc, f (incorrect dNTP)/f (correct dNTP): 1.82 × 10^−4
[2]; base pair G: dTTP (template base: incoming nucleotide)
  Vmax: 63.20 % Min^−1
[3]
  PCR amplification with all four αS dNTPs: to lesser extent
[4]; even at the lowest enzyme concentrations
  processivity compared with wtTaq: processivity equal (or higher) than wtTaq
[4]; in the presence of trap DNA (single DNA binding event)
  bound polymerase that extended primers to the end of the template: 15%
[4]; positions 2 through 5
  termination probability: 13-35%
[4]; positions 6 and 7
  termination probability: 2-4%
[5]
  dissociation constants for matched and mismatched primer-template duplex: indistinguishable
